Reference: the DeepSol protein solubility set

Assay: soluble on expression in E. coli; label from the status in PepcDB or PDB records
For “MDRFELLGPLPREGTTTVLEASAGTGKTFALAGLVTRYLAETAATLDEMLLITFNRAASRELRERVRGQIVEAVGALQGDAPPSGELVEHLLRGSDAERAQKRSRLRDALANFDAATIATTHEFCGSVLKSLGVAGDNAADVELKESLTDLVTEIVDDRYLANFGRQETDPELTYAEALALALAVVDDPCAQLRPPDPEPGSKAAVRLRFAAEVLEELERRKGRLRAQGFNDLLIRLATALEAADSPARDRMRERWRIVLVDEFQDTDPMQWRVLERAFSRHSALILIGDPKQAIYGFRGGDIHTYLKAAGTADARYTLGVNWRSDRALVESLQTVLRDATLGHADIVVRGTDAHHAGHRLASAPRPAPFRLRVVKRHTLGYDGTAHVPIEALRRHIPDDLAADVAALLASGATFAGRPVVAADIAVIVEHHKDARACRNALAEAGIPAIYTGDTDVFASQAAKDWLCLLEAFDAPQRSGLVRAAACTMFFGETAESLAAEGDALTDRVAGTLREWADHARHRGVAAVFQAAQLAGMGRRVLSQRGGERDLTDLAHIAQLLHEAAHRERLGLPGLRDWLRRQAKAGAGPPEHNRRLDSDAAAVQIMTVFVAKGLQFPIVYLPFAFNRNVRSDDILLYHDDGTRCLYIGGKDGGAQRRTVEGLNRVEAAHDNLRLTYVALTRAQSQVVAWWAPTFDEVNGGLSRLLRGRRPGQSQVPDRCTPRVTDEQAWAVFAQWEAAGGPSVEESVIGARSSLEKPVPVPGFEVRHFHRRIDTTWRRTSYSDLVRGSEAVTVTSEPAAGGRADEVEIAVVAAPGSGADLTSPLAALPSGASFGSLVHAVLETADPAAPDLAAELEAQVRRHAPWWTVDVDHAQLAPELARALLPMHDTPLGPAAAALTLRQIGVRDRLRELDFEMPLAGGDLRGRSPDVSLADVGELLASHLPGDDPLSPYADRLGSAGLGDQPLRGYLAGSIDVVLRLPGQRYLVVDYKTNHLGDTAADYGFERLTEAMLHSDYPLQALLYVVVLHRFLRWRQRDYAPARHLGGVLYLFVRGMCGAATPVTAGHPAGVFTWNPPTALVVALSDLLDRGRLQS”, the “soluble on expression in E. coli” value was “soluble”.
With “MQVPQDGEDLAGQPWYHGLLSRQKAEALLQQNGDFLVRASGSRGGNPVISCRWRGSALHFEVFRVALRPRPGRPTALFQLEDEQFPSIPALVHSYMTGRRPLSQATGAVVSRPVTWQGPLRRSFSEDTLMDGPARIEPLRARKWSNSQPADLAHMGRSREDPAGMEASTMPISALPRTSSDPVLLKAPAPLGTVADSLRASDGQLQAKAPTKPPRTPSFELPDASERPPTYCELVPRVPSVQGTSPSQSCPEPEAPWWEAEEDEEEENRCFTRPQAEISFCPHDAPSCLLGPQNRPLEPQVLHTLRGLFLEHHPGSTALHLLLVDCQATGLLGVTRDQRGNMGVSSGLELLTLPHGHHLRLELLERHQTLALAGALAVLGCSGPLEERAAALRGLVELALALRPGAAGDLPGLAAVMGALLMPQVSRLEHTWRQLRRSHTEAALAFEQELKPLMRALDEGAGPCDPGEVALPHVAPMVRLLEGEEVAGPLDESCERLLRTLHGARHMVRDAPKFRKVAAQRLRGFRPNPELREALTTGFVRRLLWGSRGAGAPRAERFEKFQRVLGVLSQRLEPDR” the “soluble on expression in E. coli” value was “soluble”.
For “GPGSMQRGFCRVGTVTVSQAQKRAAELINSSDGFCSNVMRTVQFTPTGVKACDGESMGFSWRANQRALNGFRSTHGGALAILADTFTQIHLGAARPAAEFRSVSFEINYLEAIPENAECTCITRIVGDGESDIHHVEYSFQDERRRKVFSRGTHVLSCTK”, the “soluble on expression in E. coli” value was “soluble”.
With “MGSDKIHHHHHHMSIAIIIATHGVAAEQLLKTTEMLIGEQENVATIDFVSGENAETIMTKYQEKLSTTLAHCDEVLFLVDTWGGSPFNAANRVIGDNTNMDIVTGVNVPMLVETFMARDDNPSLQELVSIALETGRAGVRALKYEEKSAETTALSQPVPEQPQIAVKQQEGNLIVGLARIDDRLIHGQVATRWTKESRVTRIVVVNDDVAKDQVRSTMLKSVAPPGVTAHVVNIEKMIRVYNNPEYANERMMLLFTNPTDVLRLLEAGVDMKSINVGGMAYKDGKKMITSAVAVDDKDIAAFKAIDAMGIELDVRKVSNDSRQYMMDLLKKNNLI” the “soluble on expression in E. coli” value was “not soluble”.
With “MGSDKIHHHHHHMNFNSDLLNLNSKSPAFSITIEGKDVTTVMDARLMSLTLTDNRGFEADQLDLELDDADGQIVLPRRGAVIHLALGWKGQPLFPKGAFTVDEIEHSGAPDRLTIRARSADFRETLNTRREKSWHQTTVGEVVKEIAARHNLKVALGQDLTDKALDHMDQTNESDASFLMKLARQYGAIASVKDGNLLFIRQGQGRTASGKPLPVITITRKAGDGHRFTLADRGAYTGVIASWLHTREPRKKETTSVKRRRKKATTPKEPEAKQGDYLVGTDENVLVLNRTYANRSNAERAAKMQWERLQRGVASFSLQLAEGRADLYTEMPVKVTGFKQPIDDAEWTITTLTHSVSPDNGFTTSMELEVKIDDLEIE” the “soluble on expression in E. coli” value was “not soluble”.
In the case of “MNNSGADEIGKLFVGGLDWSTTQETLRSYFSQYGEVVDCVIMKDKTTNQSRGFGFVKFKDPNCVGTVLASRPHTLDGRNIDPKPCTPRGMQPERTRPKEGWQKGPRSDNSKSNKIFVGGIPHNCGETELREYFKKFGVVTEVVMIYDAEKQRPRGFGFITFEDEQSVDQAVNMHFHDIMGKKVEVKRAEPRDSKSQAPGQPGASQWGSRVVPNAANGWAGQPPPTWQQGYGPQGMWVPAGQAIGGYGPPPAGRGAPPPPPPFTSYIVSTPPGGFPPPQGFPQGYGAPPQFSFGYGPPPPPPDQFAPPGVPPPPATPGAAPLAFPPPPSQAAPDMSKPPTAQPDFPYGQYAGYGQDLSGFGQGFSDPSQQPPSYGGPSVPGSGGPPAGGSGFGRGQNHNVQGFHPYRR”, the “soluble on expression in E. coli” value is reported as “soluble”.
For “MSEMLNHVASCRLPTEWGVFTMHGFEEANGQEHVALTVGNFSDGNPVLTRIHSECLTGDALFSRKCDCGPQLEAAMRAVQTEGRGIIVYLRQEGRGIGLINKIRAYHLQDQGMDTVEANLALGLPVDARDFRLAQSIYEYLGIRSVKLLTNNPEKIQTLKDAGINVVERIPLHVGENLENKRYLQTKADKLGHLMSE”, the “soluble on expression in E. coli” value was “not soluble”.
In the case of “MPDRHVASSETKRGGAGMTDRELSDQAIAVLVDVARTAGRDLNAGQRLELDRLVSDGLVAVSTSGDPAGQRHYRLTVAGQTALDQRGVGANEA”, the “soluble on expression in E. coli” value is reported as “not soluble”.
For “MSLKKISFIINGQVEIFPESDDLVQSINFGDNSVYLPILNNSHVKNIIDYNENNKLRLHNIVNFLYTVGQRWKNEEYSRRRTYIRDLKKYMGYSEAMAKLEANWISMILCSKGGLYDVVENELGSRHIMDEWLPQDESYIKAFPKGKSIHLLAGNVPLSGIMSILRAILTKNQCIIKTSSTDPFTANALALSFIDVDPNHPITRSLSVVYWPHQGDTSLAKEIMQHMDVIVAWGGEDAINWAVEHAPPYADVIKFGSKKSFCIIDNPVDLTSAATGAAHDICFYDQRACFSAQNIYYMGNQYEEFKLALIEKLNLYAHILPNAKKDFDEKAAYSLVQKESLFAGLKVEVDVHQRWMIIESNAGVEFNQPLGRCVYLHHVDNIEQVLPYVQKNKTQTISIFPWESAFKYRDALALRGAERIVEAGMNNIFRVGGSHDGMRPLQRLVTYISHERPSHYTAKDVAVEIEQTREGHHHHHH”, the “soluble on expression in E. coli” value was “soluble”.
In the case of “MAHHHHHHMWNLNRLYRQNELSMHGVRNNHDIIVVRQVNISDKNNPDNYLHNQNNTNTSIKQNPQSVILNEKELLNLVQNFNHINRKHKGFCETSIFKNSTFSNTNNEHNGEDSFNTYLIIDKWKTKREFEKSKKEFEKLFAHKNHLYDKKMEDIYLNYEMYNNNYETVSAQNIFQKLYYFIFD”, the “soluble on expression in E. coli” value is reported as “not soluble”.
For “MSLAETWDMPLAYSGSNFHSVTAAEFGNCVTTGTGGEIEIVTHPSGSLFKGADIKRAVQTGQAPIGERLLSGHQNENALFGFDSVPFLATSFDDADKLWKAAKEPLSALLAEQNLTLLYSVPWPPQGLYFKNEVNAVADMKGIKFRSYNNATSRLAELTGMLPVTIEAAEISQAFATGVADSMISSGSTGYDRKVWESLNYFYEVDAWLPRNYVFVNSDVWSGVSDQNKNVIQACAGLAEYAGNWRSKEYTGFTLQGLRDGGMTVGPASDQLVGELKEIGVTMTSEWLEAAGDQGKAIVDAFKAEGHHHHHH”, the “soluble on expression in E. coli” value was “not soluble”.
For “GAMALVDGFLELERSSGKLEWSAILQKMASDLGFSKILFGLLPKDSQDYENAFIVGNYPAAWREHYDRAGYARVDPTVSHCTQSVLPIFWEPSIYQTRKQHEFFEEASAAGLVYGLTMPLHGARGELGALSLSVEAENRAEANRFMESVLPTLWMLKDYALQSGAGLAFEHPVSK”, the “soluble on expression in E. coli” value was “soluble”.
In the case of “MGSHHHHHHDITSLYKKAGSAAAVLEENLYFGGSFTMDMAADIASDHFISRRVDIGRITLNVREKGSGPLMLFFHGITSNSAVFEPLMIRLSDRFTTIAVDQRGHGLSDKPETGYEANDYADDIAGLIRTLARGHAILVGHSLGARNSVTAAAKYPDLVRSVVAIDFTPYIETEALDALEARVNAGSQLFEDIKAVEAYLAGRYPNIPADAIRIRAESGYQPVDGGLRPLASSAAMAQTARGLRSDLVPAYRDVTKPVLIVRGESSKLVSAAALAKTSRLRPDLPVVVVPGADHYVNEVSPEITLKAITNFIDA”, the “soluble on expression in E. coli” value is reported as “soluble”.
With “DLYFQGGSGMQCEEKLEVFENGFKDEKFNVEVKFYGNDARKVLLAMIYELYLPEYGREYVYPFECAKEFWNIYLEGEEIQDEEFQLKPIKFTSEQVIKKLQEEIKKIKPPLEIKIEEAKIYKTKEGYLAVGNYFILDPRGRLFIFNKPSIANKILKYIWKW” the “soluble on expression in E. coli” value was “soluble”.
With “MSLIYQTPDALDLQLDRIPSLPPPRRVVLTTPTHFDVEYVINPHMSENVGAVNTDVAWQQWKALRAAYTALDHTPVLVNGQSGLPDMVFCANQTLPFYDPASDSKGVVLSRMHSEQRADEVPYYARFFEEEGYAVDTLPEDLDADFEGMGDALWHPGHHLLWGGYGYRTSPEAYEALGDLLDVPIVALRLVDPDYYHLDTCLCPLDARHALVAPEAFDDAGRALIDALFETVIEVPDHEARHQFACNAHCPDGAHVLIQEGCEGTNAQLRNHDFVPVELDTSEFMKSGGSVFCMKQMIWEGHHHHHH” the “soluble on expression in E. coli” value was “soluble”.
For “MSDSGRADALLAQLPREGRGRLKVFLGAAPGVGKTYAMLQAAHAQLRQGVRVMAGVVETHGRAETEALLNGLPQQPLLRTEYRGMTLEEMDLDALLKAAPSLVLVDELAHTNAPGSRHTKRWQDIQELLAAGIDVYTTVNVQHLESLNDQVRGITGVQVRETLPDWVLQEAFDLVLIDLPPRELLERLRDGKVYVPEQARAAIDAFFTQTNLTALREMAMQTAAAQV”, the “soluble on expression in E. coli” value was “not soluble”.
In the case of “MHHHHHHSSGRENLYFQGSGTIYGWGHNHRGQLGGIEGAKVKVPTPCEALATLRPVQLIGGEQTLFAVTADGKLYATGYGAGGRLGIGGTESVSTPTLLESIQHVFIKKVAVNSGGKHCLALSSEGEVYSWGEAEDGKLGHGNRSPCDRPRVIESLRGIEVVDVAAGGAHSACVTAAGDLYTWGKGRYGRLGHSDSEDQLKPKLVEALQGHRVVDIACGSGDAQTLCLTDDDTVWSWGDGDYGKLGRGGSDGCKVPMKIDSLTGLGVVKVECGSQFSVALTKSGAVYTWGKGDYHRLGHGSDDHVRRPRQVQGLQGKKVIAIATGSLHCVCCTEDGEVYTWGDNDEGQLGDGTTNAIQRPRLVAALQGKKVNRVACGSAHTLAWSTSKP”, the “soluble on expression in E. coli” value is reported as “soluble”.
For “MGSDKIHHHHHHMTIGLSCNALKYGGGLERYAIDLARGLADAGVRPLVFARSFDSSVPEYQCVEPRRINVSFLPGKCRDAWFSWRLRAARRAAPVDVLIGCNRVDSSDIAICGGTHLGFLDAIGRMPTFSDRRQIALERRQYARARFVVAHSMLMRDELRRFYGLSDDKIRVLFPPVDAARFTPVDAVRRAELRTRFGFADDEVVLLFPSSSHERKGLPLIEAILRDAGPRVVVAVAGRPPERTSERLRYVGYVKDIEDGYRAADFTILASKYEPFGLVGVESVMCGTPVILPSNIGCCDAIAPSAKLVFAPGDAAGLRGMLDEAVRRVRAGAVRVESGAAARAAIQYDPSVARHVAQLLDLAAEAASDRRNGGR”, the “soluble on expression in E. coli” value was “not soluble”.
